These are literature values, as cited in publication PMC4440832.

The target of series [1] is BMP4 (Homo sapiens) (UniProt P12644). The experiment in a line: SPR. (In general: In SPR one partner is held on a chip, and binding of the other changes the refractive index at the surface.)
Another series concerns the target BMP6 (Homo sapiens) (UniProt P22004). Briefly: SPR.
The target in series [2] is BMP2 (Homo sapiens) (UniProt P12643). Briefly: SPR.
The target is the same in series [3]. Briefly: radioligand binding.
A further series addresses BMP5 (Homo sapiens) (UniProt P22003). The experiment in a line: SPR.
The next series has as its target BMP7 (Homo sapiens) (UniProt P18075). The experiment in a line: SPR.
Another series concerns the target netrin (UniProt O95631).
For series [4], the target named is BMP4 (Homo sapiens) (UniProt P12644). The experiment in a line: radioligand binding.

pKd: −log10 of the molar value.

RGMa.Fc ECD, sequence (Q6PCX7 48-427): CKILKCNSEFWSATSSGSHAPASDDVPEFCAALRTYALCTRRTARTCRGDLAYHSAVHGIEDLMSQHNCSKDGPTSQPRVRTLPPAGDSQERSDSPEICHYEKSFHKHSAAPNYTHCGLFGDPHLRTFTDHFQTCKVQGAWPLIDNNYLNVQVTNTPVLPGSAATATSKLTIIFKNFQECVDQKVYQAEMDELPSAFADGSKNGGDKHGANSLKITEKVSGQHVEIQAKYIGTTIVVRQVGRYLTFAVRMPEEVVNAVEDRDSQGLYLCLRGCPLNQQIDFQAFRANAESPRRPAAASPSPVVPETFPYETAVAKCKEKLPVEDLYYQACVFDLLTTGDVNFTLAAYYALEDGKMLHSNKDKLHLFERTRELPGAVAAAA
BMP2 (Homo sapiens), sequence (P12643 283-396): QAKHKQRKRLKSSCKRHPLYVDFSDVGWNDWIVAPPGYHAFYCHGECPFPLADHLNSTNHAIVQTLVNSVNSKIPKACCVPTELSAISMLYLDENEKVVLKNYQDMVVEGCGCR
BMP6 (Homo sapiens), sequence (P22004 375-513): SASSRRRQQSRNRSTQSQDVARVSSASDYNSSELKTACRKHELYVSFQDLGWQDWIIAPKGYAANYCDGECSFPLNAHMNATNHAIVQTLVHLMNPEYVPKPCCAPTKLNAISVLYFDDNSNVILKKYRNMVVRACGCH
RGMb, sequence (Q6NW40 46-413): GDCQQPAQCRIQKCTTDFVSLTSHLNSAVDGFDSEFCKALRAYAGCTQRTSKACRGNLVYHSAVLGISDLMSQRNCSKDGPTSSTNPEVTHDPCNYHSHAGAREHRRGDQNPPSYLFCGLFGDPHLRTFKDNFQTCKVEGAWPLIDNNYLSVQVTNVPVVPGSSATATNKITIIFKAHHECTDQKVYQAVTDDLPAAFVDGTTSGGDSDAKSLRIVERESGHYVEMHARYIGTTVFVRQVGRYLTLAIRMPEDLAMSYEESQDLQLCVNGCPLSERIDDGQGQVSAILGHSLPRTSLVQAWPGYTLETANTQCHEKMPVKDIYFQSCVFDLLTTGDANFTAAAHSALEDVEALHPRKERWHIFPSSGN
HJV, sequence (Q6ZVN8 36-400): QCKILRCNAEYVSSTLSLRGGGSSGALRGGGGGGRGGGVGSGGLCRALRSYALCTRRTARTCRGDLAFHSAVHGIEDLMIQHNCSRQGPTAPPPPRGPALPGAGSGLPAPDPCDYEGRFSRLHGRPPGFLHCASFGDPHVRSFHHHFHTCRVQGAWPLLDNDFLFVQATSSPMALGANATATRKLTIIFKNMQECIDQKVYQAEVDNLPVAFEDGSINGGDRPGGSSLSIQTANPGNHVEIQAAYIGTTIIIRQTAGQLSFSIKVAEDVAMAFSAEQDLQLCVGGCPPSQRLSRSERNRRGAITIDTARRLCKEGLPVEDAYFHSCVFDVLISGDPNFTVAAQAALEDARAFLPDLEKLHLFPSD
BMP4 (Homo sapiens), sequence (P12644 293-408): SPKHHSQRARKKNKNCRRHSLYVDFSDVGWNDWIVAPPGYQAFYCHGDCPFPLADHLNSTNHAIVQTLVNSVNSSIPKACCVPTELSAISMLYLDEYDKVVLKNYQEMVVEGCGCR
RGMa, sequence (Q96B86 48-424): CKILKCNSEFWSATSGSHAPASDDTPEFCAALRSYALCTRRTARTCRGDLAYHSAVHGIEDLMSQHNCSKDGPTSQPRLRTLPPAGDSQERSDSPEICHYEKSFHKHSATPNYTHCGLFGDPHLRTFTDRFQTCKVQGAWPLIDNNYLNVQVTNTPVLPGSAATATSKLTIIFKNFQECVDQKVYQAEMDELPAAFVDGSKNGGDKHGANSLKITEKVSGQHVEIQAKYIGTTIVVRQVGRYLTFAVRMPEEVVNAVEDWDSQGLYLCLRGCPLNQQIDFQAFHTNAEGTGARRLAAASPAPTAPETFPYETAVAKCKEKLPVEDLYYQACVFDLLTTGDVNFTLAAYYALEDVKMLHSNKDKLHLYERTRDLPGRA
RGMb.Fc ECD, sequence (Q7TQ33 49-415): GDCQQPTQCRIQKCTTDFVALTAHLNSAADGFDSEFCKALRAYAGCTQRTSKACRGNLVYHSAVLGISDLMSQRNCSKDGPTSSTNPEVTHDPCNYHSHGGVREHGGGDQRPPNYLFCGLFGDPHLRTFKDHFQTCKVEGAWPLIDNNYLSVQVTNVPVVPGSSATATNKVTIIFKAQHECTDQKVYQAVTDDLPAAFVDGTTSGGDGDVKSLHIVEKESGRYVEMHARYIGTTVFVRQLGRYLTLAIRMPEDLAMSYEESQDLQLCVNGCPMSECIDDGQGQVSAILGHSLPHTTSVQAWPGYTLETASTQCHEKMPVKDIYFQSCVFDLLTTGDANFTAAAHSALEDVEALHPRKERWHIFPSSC
BMP5 (Homo sapiens), sequence (P22003 317-454): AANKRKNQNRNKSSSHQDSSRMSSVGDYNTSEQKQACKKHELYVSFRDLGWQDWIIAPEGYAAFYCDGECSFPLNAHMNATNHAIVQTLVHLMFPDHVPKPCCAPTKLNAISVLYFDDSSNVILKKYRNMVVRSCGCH
neogenin, sequence (Q92859 34-1105): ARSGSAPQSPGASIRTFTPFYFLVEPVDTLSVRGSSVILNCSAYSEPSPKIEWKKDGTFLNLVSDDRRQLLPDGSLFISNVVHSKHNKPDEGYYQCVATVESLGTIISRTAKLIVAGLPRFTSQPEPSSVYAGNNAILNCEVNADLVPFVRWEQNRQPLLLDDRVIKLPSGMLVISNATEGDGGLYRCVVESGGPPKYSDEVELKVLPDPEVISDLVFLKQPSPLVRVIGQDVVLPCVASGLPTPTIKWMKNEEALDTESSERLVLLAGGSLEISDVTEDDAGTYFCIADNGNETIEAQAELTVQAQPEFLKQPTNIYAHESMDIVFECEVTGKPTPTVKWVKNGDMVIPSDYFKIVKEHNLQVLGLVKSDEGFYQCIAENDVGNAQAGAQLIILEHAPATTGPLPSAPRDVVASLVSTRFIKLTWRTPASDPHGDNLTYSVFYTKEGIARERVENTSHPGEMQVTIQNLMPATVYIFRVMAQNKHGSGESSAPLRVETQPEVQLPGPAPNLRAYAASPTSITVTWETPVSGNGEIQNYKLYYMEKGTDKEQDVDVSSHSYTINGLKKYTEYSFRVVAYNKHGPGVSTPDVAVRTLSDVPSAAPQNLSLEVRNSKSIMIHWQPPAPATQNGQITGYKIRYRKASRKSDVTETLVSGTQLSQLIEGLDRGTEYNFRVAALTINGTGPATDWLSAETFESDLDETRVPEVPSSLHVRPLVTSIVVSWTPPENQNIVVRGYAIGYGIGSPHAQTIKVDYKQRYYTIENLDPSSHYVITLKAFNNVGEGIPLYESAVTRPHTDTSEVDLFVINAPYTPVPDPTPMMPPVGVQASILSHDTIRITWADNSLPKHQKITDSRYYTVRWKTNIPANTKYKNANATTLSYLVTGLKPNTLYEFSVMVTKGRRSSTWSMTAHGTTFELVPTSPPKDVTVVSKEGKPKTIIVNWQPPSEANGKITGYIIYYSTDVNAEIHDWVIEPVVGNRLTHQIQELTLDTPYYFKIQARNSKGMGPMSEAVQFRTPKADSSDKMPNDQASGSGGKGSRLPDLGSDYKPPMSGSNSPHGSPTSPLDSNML
BMP7 (Homo sapiens), sequence (P18075 293-431): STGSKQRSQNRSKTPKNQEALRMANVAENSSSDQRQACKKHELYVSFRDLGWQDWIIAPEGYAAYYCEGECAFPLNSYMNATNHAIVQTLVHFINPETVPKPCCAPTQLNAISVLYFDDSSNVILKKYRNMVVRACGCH

By pKd is commonly meant the negative decadic logarithm of the Kd, by convention in mol/L. Consider RGMb (from UniProt Q6NW40), for which the pKd with BMP4 (Homo sapiens) [1] was 8.59; with BMP6 (Homo sapiens), 7.55; with BMP2 (Homo sapiens) [2] it was 8.26.
As to RGMb.Fc ECD (from UniProt Q7TQ33), the pKd with BMP2 (Homo sapiens) [3] was 8.82.
Regarding HJV (from UniProt Q6ZVN8), the pKd is 7.77 with BMP5 (Homo sapiens), 7.70 in the series with BMP7 (Homo sapiens) and 8.09 in the series with BMP6 (Homo sapiens).
Turning to neogenin (from UniProt Q92859), in the series with netrin, the pKd is 8.70.
For RGMa (from UniProt Q96B86), the pKd with BMP6 (Homo sapiens) is 7.26; with BMP2 (Homo sapiens) [2], 7.66.
For RGMa.Fc ECD (from UniProt Q6PCX7), the results for the pKd in the series with BMP2 (Homo sapiens) [2], with BMP4 (Homo sapiens) [4] and with BMP2 (Homo sapiens) [3] were 8.61, 8.85 and 8.62, respectively.
